Source: FireProtDB (doi:10.1021/bi00173a036)

Settings: Bos taurus, Thermal, DSC, reversible: yes, whole UniProt chain shown

B1: Alpha-lactalbumin wild type, P00711 (protein)
chain: MMSFVSLLLVGILFHATQAEQLTKCEVFRELKDLKGYGGVSLPEWVCTTFHTSGYDTQAIVQNNDSTEYGLFQINNKIWCKDDQNPHSSNICNISCDKFLDDDLTDDIMCVKKILDKVGINYWLAHKALCSEKLDQWLCEKL
heat capacity change of unfolding (pH 3, 44.3 °C, acetate 10 mM): 1.3 kcal/mol/K | unfolding enthalpy (calorimetric) (pH 3, 44.3 °C, acetate 10 mM): 25.6 kcal/mol | heat capacity change of unfolding (pH 3.2, 29.8 °C, acetate 10 mM): 1.5 kcal/mol/K | unfolding enthalpy (calorimetric) (pH 3.2, 29.8 °C, acetate 10 mM): 21.4 kcal/mol | Tm (pH 3.2, acetate 10 mM): 29.8 °C | heat capacity change of unfolding (pH 3.2, acetate 10 mM): 0.92 kcal/mol/K | unfolding enthalpy (calorimetric) (pH 3.2, acetate 10 mM): 36.1 kcal/mol | unfolding enthalpy (van 't Hoff) (pH 3.2, acetate 10 mM): 43.5 kcal/mol | heat capacity change of unfolding (pH 3.5, 41 °C, acetate 10 mM): 1.6 kcal/mol/K | unfolding enthalpy (calorimetric) (pH 3.5, 41 °C, acetate 10 mM): 13.1 kcal/mol | Tm (pH 3.5, acetate 10 mM): 41 °C | heat capacity change of unfolding (pH 3.5, acetate 10 mM): 1.19 kcal/mol/K | unfolding enthalpy (calorimetric) (pH 3.5, acetate 10 mM): 47.8 kcal/mol | unfolding enthalpy (van 't Hoff) (pH 3.5, acetate 10 mM): 51.4 kcal/mol | heat capacity change of unfolding (pH 4.2, 57 °C, acetate 10 mM): 1.7 kcal/mol/K | unfolding enthalpy (calorimetric) (pH 4.2, 57 °C, acetate 10 mM): 2.72 kcal/mol | Tm (pH 4.2, acetate 10 mM): 57 °C | heat capacity change of unfolding (pH 4.2, acetate 10 mM): 1.61 kcal/mol/K | unfolding enthalpy (calorimetric) (pH 4.2, acetate 10 mM): 64.8 kcal/mol | unfolding enthalpy (van 't Hoff) (pH 4.2, acetate 10 mM): 59.8 kcal/mol | Tm (pH 8, Tris-HCl 5 mM): 64.3 °C | heat capacity change of unfolding (pH 8, Tris-HCl 5 mM): 1.7 kcal/mol/K | unfolding enthalpy (calorimetric) (pH 8, Tris-HCl 5 mM): 70.6 kcal/mol | unfolding enthalpy (van 't Hoff) (pH 8, Tris-HCl 5 mM): 69.1 kcal/mol
